According to US20200179510A1 (YALE UNIVERSITY, published 2020):

Molecular target: T1, Recombinant mouse DKK1 protein (R&D) (mouse, UniProt O54908 32-272, limits assumed)
T1 construct: Bought recombinant protein, coated on the ELISA plate at 20 ng/ml
T1 sequence (looked up): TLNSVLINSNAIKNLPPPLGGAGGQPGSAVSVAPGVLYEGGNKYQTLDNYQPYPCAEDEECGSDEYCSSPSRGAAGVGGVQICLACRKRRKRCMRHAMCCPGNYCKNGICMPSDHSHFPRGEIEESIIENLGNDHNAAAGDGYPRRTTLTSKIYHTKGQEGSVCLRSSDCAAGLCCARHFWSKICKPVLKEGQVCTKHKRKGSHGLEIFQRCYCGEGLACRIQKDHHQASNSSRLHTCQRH
Assay: ELISA, recombinant mouse DKK1 coated at 20 ng/ml
Method: Recombinant mouse DKK2 or DKK1 protein (20 ng/ml, R&D) in a blocking buffer (1% BSA in PBS) was incubated in a 384-well microtiter plate for overnight at 4° C. The plate was washed with PBS twice and incubated with the blocking buffer for one hour at room temperature. The plate was then incubated with the anti-DKK2 5F8 antibody in the blocking buffer for 1 hour at room temperature. After repeatedly washing, the plate was incubated with an HRP-conjugated secondary antibody for 1 hour at room temperature. A chemiluminance substrate (Thermo Fisher 37070) was added to the plate, and the plate was read by an EnVision plate reader.

B1: Mouse monoclonal antibody to DKK2 (5F8) (antibody, V domains shown)
VH: GAELVRPGASVKLSCKASGYSFTNYWMNWVKQRPGQGLEWIGMIHPSDSETRLNQKFKDKATLTVDKSSSTAYMQLSSPTSEDSAVYYCAREGRLGLRSYAMDYWGQGTSVTVSS
VL: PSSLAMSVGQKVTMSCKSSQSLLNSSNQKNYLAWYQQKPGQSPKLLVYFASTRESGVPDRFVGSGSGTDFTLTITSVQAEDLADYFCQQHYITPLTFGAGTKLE
notes: Mouse hybridoma antibody; IgG3 served as its isotype control; also called anti-DKK2 5F8 antibody; anti-DKK2 antibody 5F8
  binding result: no binding
